According to patent US9889181B2, “Bacteriophage lysin and antibiotic combinations against gram positive bacteria” (priority 2012, dated 2018):

Experiments:
[1] = system: Staphylococcus epidermidis; test: MIC, broth microdilution (CLSI M07-A9); settings: Staphylococcus epidermidis (11)
Proteus mirabilis = test: MIC, human gut bacteria; type: cell-based; settings: N 2
[2] = system: MRSA strain MW2 and MSSA strain ATCC 29213; type: cell-based, Staphylococcus aureus; settings: consistently across 1.25 to 15% surfactant
MSSA = test: MIC, broth microdilution (CLSI M07-A9)
LRSA = test: MIC, broth microdilution (CLSI M07-A9); parameters: MIC 50% / MIC 90% / MIC Range: unit not given beside the values
[3] = system: S. aureus cells (strain MW2); test: Electron microscopy of bacteriolysis; type: cell-based, Staphylococcus aureus
From the text: FIG. 4A-4F provides composite time kill curves of PlySS2 and antibiotics on S. aureus cells in vitro. (A, B) Composite time-kill curves of PlySS2 compared to oxacillin (OXA), vancomycin (VAN), and daptomycin (DAP) against sets of 20 MSSA and 42 MRSA strains, respectively. In each individual analysis, drug concentrations correspond to strain-specific 1×MIC values. Mean values (±standard error of the mean) are shown for each time-point. (C, D) Titration analysis of PlySS2 against sets of 15 contemporary clinical MSSA and MRSA isolates, respectively. In each individual analysis, PlySS2 concentrations correspond to strain-specific MIC values. […] (E,F) Transmission electron micrographs (3300× magnification) of S. aureus cells (strain MW2) before and after 3 second treatment with 8 µg/mL PlySS2. Scale bars correspond to […]. Lysis results in the loss of darkly stained cytoplasmic components.
Rapid-kill kinetics are desirable in the clinical setting to treat patients with fulminant bacterial infections.

[4] = system: Streptococcus agalactiae, Group B; test: MIC, broth microdilution (CLSI M07-A9); settings: Group B (51)
MRSA = test: Murine bacteremia, PlySs2 dose-response and blood CFUs; type: in vivo, mice; settings: for decrease in CFUs in blood: 5.25 mg/kg at 2-hours post-infection
Enterococcus faecium = test: MIC, broth microdilution (CLSI M07-A9); settings: Enterococcus faecium (5)
VRSA = test: MIC, broth microdilution (CLSI M07-A9)
[5] = Staphylcoccus aureus Methicillin susceptible (103)
[6] = Linezolid-resistant (5) Staphylococcus aureus

B1: PlySs2: bacteriophage lysin derived from Streptococcus suis, amino acid sequence of FIG. 29 (SEQ ID NO: 1) (protein, listed as Streptococcus suis)
chain: MTTVNEALNNVRAQVGSGVSVGNGECYALASWYERMISPDATVGLGAGVGWVSGAIGDTISAKNIGSSYNWQANGWTVSTSGPFKAGQIVTLGATPGNPYGHVVIVEAVDGDRLTILEQNYGGKRYPVRNYYSAASYRQQVVHYITPPGTVAQSAPNLAGSRSYRETGTMTVTVDALNVRRAPNTSGEIVAVYKRGESFDYDTVIIDVNGYVWVSYIGGSGKRNYVATGATKDGKRFGNAWGTFK
With B1 the “MIC 50%” value [1] was 128 µg/mL, the “MIC 90%” value [1] was 512 µg/mL and the “MIC Range” value [1] was 4 to 512 µg/mL. For the same molecule, the “CF-301 MIC” value (Proteus mirabilis) was over 512 µg/mL, the “fold inhibition of MIC in the presence of Survanta” value [2] was 8 fold and the “MIC90” value (MSSA; MSSA (n-28)) was 0.15 µM. For the same molecule, the “MIC 50%” value (MSSA; [5]) was 4 µg/mL, the “MIC 90%” value (MSSA; [5]) was 8 µg/mL and the “MIC Range” value (MSSA; [5]) was 1 to 16 µg/mL. The “MIC90” value (LRSA; LRSA (n = 5)) was 0.08 µM, the “MIC 50%” value (LRSA; [6]) was 2 and the “MIC 90%” value (LRSA; [6]) was 2. The “MIC Range” value (LRSA; [6]) was 2-4, the “treatment time giving extensive bacteriolysis of S. aureus cocci” value [3] was 15 s and the “MIC 50%” value [4] was 8 µg/mL. For the same molecule, the “MIC 90%” value [4] was 16 µg/mL, the “MIC Range” value [4] was 1 to 64 µg/mL and the “protection” value (MRSA; 5 mg/kg dose, data not shown) was “significant protection”. For the same molecule, the “decrease in CFUs in blood” value (MRSA; in 15 minutes) was 0.5 log10, the “decrease in CFUs in blood” value (MRSA; within the 60 minutes of treatment) was 2 log10 and the “lowest dose with survival enhancement over mock-injected control” value (MRSA; data not shown) was 0.25 mg/kg. The “MIC 50%” value (Enterococcus faecium) was over 512 µg/mL, the “MIC 90%” value (Enterococcus faecium) was over 512 µg/mL and the “MIC90” value (VRSA; VRSA (n = 14)) was 0.08 µM. The “MIC Range” value (VRSA; Vancomycin-resistant (14) Staphylococcus aureus) was 1000 to 4000 µg/mL.
